Assay results: patent publication US20060246519

What was measured:
[1] = SDS-PAGE/Western blot of non-boiled culture supernatant; self-association of subunits
[2] = SDS-PAGE/Western blot of non-boiled culture supernatant, 20 uM biotin in medium; self-association of subunits

B1: streptavidin mutein M4 (T76R, V125R, V55T, L109T), secreted by B. subtilis (protein)
chain: DPSKDSKAQVSAAEAGITGTWYNQLGSTFIVTAGADGALTGTYESAVGNAESRYTLTGRYDSAPATDGSGTALGWRVAWKNNYRNAHSATTWSGQYVGGAEARINTQWTLTSGTTEANAWKSTLRGHDTFTKVKPSAASIDAAKKAGVNNGNPLDAVQQ
% monomer, no additional biotin [1]: 100%
% monomer, with additional biotin [2]: 100%
